Experimental data: patent publication US20050065320A1

Key:
[1] = molecular target: g12 mutant (Env protein) of the HIV-1 isolate 133 (HIV-1 primary isolate 133); assay: capture ELISA on lysates and supernatants, F105 1 µg/ml
[2] = molecular target: g12 mutant (Env protein) of the HIV-1 isolate 133 (HIV-1 primary isolate 133); assay: capture ELISA, 17b 1 µg/ml

Substance	signal relative to the native protein [1]	signal relative to the native protein [2]
F105 human monoclonal antibody (NIBSC)	< 4.5 times	–
17b human monoclonal antibody	–	3 times
